For the assay, the target named is SLA-1*0401/β2M (HEK293トランスフェクタント細胞表面) (pig) (UniProt Q07717). The experiment in a line: flow cytometry of hybridoma supernatant on SLA-1*0401/β2M HEK293 transfectants.

B1: モノクローナル抗体X2F6 (antibody, mouse IgG2a, kappa, V domains shown)
VH: QVQLQQSGAELVKPGASVKLSCKASGYTFTSYDINWVRQRPEQGLEWIGWIYPGDGSTKYNEKFKGKATLTTDKSSSTAYMQLSRLTSEDSAVYFCASPYYYGSSPFAYWGQGTLVTVSA
VL: DIQMTQSPASLSASVGETVTITCRASENIYSYLAWYQQKQGKSPQLLVYNAKTLAEGVPSRFSGSGSGTQFSLKINSLQPEDFGSYYCQHHYGTPRTFGGGTKLEIKR
B1 gave a 平均蛍光強度(MFI) of 3000.

(Values after patent JP2016135753A.)
